This is an account of results in patent CN114276439A (YUDOLONG SUZHOU MEDICAL SCIENCE AND TECH LIMITED COMPANY, dated 2022).

In one test the target is T1, HPV16假病毒 (HPV16, UniProt P03101 1-505).
T1 sequence: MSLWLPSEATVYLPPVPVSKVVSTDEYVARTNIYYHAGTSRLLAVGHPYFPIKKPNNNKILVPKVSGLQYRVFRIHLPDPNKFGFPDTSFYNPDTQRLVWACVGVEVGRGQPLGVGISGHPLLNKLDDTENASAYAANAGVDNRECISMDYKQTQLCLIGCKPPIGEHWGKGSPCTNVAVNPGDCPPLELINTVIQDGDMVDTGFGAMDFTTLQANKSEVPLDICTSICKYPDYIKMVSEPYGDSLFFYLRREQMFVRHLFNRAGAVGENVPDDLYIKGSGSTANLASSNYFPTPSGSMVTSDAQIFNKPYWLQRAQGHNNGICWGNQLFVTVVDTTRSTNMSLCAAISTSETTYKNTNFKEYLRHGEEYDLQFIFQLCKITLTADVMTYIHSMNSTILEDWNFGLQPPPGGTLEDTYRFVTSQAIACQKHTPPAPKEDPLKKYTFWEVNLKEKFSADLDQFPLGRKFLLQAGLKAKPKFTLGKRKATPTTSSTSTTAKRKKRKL
The test is described as follows: cell-based or functional assay.

The target of another test is T2, HPV11 VLP (HPV11, UniProt P04012 1-501).
T2 sequence: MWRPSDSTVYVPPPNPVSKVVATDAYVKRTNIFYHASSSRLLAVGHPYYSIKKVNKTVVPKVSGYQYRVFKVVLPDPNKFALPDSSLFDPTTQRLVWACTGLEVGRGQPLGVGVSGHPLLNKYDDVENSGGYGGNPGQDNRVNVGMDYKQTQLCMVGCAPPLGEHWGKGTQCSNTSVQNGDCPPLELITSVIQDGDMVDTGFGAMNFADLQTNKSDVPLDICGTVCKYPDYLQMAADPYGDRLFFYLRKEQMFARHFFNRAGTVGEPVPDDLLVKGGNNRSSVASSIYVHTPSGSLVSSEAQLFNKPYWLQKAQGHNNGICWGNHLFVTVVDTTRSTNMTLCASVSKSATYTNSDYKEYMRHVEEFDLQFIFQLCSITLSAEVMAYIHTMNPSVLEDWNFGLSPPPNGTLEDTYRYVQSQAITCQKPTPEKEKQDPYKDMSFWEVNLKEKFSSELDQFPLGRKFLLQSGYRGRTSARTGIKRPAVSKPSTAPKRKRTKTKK
As to the kind of experiment: indirect ELISA, VLP coated at 0.25 μg/ml. In general terms: In an ELISA, binding on a coated surface is turned into a signal by an enzyme label.

B1: 单克隆抗体50A11 (antibody, V domains shown)
VH: DVQLQESGPGLVKPSQSLSLTCTVTGYSITSYHAWNWIRQFPGNKLEWMAYINYSGKTSYNPSLKSRISITRDTSKNQFLLQLNSVTTEDTATYYCARVDWEGNYFDYWGQGTTVTVSS
VL: DVLMTQTPLSLPVSLGDQASISCRSSQSILHSNGNTYLQWYLQKPGQSPNLLIYKVSNRFSGVPDRFSGSGSGTDFTLKISRVEAEDLGVYYCFQGSHVPPTFGGGTKLEIKR
notes: constant regions are not
Consider B1, for which, in the test with HPV16假病毒, the HPV16假病毒中和反应IC50 worked out at 1.35 ng/mL. Further, the binding result in the test with HPV11 VLP is reported as “no binding”.
